Source: the supplement of paper PMC7877785
± gives the uncertainty stated by the source.

Assay: self-splicing fitness, log relative to wild type (ln ratio); higher = more splicing; Tetrahymena group I intron in knt gene, E. coli kanamycin selection, DiMSum; sequences stand for … in CUCUCU…GGAGGGAAAAGUUAUCAGGCAUGCACCUGGUAGCUAGUCUUUAAACCAAUAGAUUGCAUCGGUUUAAAAGGCAAGACCGUCAAAUUGCGGGAAAGGGGUCAACAGCCGUUCAGUACCAAGUCUCAGGGGAAACUUUGAGAUGGCCUUGCAAAGGGUAUGGUAAUAAGCUGACGGACAUGGUCCUAACCACGCAGCCAAGUCCUAAGUCAACAGAUCUUCUGUUGAUAUGGAUGCAGUUCACAGACUAAAUGUCGGUCGGGGAAGAUGUAUUCUUCUCAUAAGAUAUAGUCGGACCUCUCCUUAAUGGGAGCUAGCGGAUGAAGUGAUGCAACACUGGAGCCGCUGGGAACUAAUUUGUAUGCGAAAGUAUAUUGAUUAGUUUUGGAGUACUCGUGGUCG
Summary of the method: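 Colonies from six replicate transformations of E. coli BL21(DE3) were pooled and amplicon-sequenced on an Illumina HiSeq 2500. The library placed an intron with all eight P1ex-region nucleotides randomised inside the knt kanamycin-resistance gene on pET-22b(+), and cells grew overnight at 37°C or 30°C on LB agar with or without 25 μg/mL kanamycin (plus 100 μg/mL carbenicillin, 50 μM IPTG, 0.2% rhamnose). Fitness is the DiMSum error-weighted combination of wild-type-normalised replicate fold changes, kanamycin versus none.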

Sequence	self-splicing fitness (ln) (30 °C)	self-splicing fitness (ln) (37 °C)
AAGCAGCAAUAUUACGUCGU	-2.51 ± 0.095	-0.636 ± 0.12
CCGAAGCAAUAUUACGGGGC	-3.54 ± 0.24	-1.64 ± 0.24
AAUAAGCAAUAUUACGUGUG	-1.05 ± 0.077	-1.57 ± 0.1
CGGUAGCAAUAUUACGGCAG	-0.164 ± 0.13	0.767 ± 0.16
UAUUAGCAAUAUUACGUAGA	-2.62 ± 0.19	-1.38 ± 0.19
GGACAGCAAUAUUACGUGCG	-0.326 ± 0.064	0.365 ± 0.087
CUCUAGCAAUAUUACGCCCA	-2.25 ± 0.4	–
ACUGAGCAAUAUUACGUCAG	-2.94 ± 0.2	-2.21 ± 0.19
AGCGAGCAAUAUUACGUGGG	-2.35 ± 0.27	-3.19 ± 0.35
GCGUAGCAAUAUUACGAACA	-0.46 ± 0.22	-0.256 ± 0.24
UUUCAGCAAUAUUACGUGUA	-2.47 ± 0.12	-1.57 ± 0.1
GUCCAGCAAUAUUACGAGUU	-1.98 ± 0.095	-1.26 ± 0.091
UAAGAGCAAUAUUACGAGGC	–	-1.97 ± 0.41
GCCAAGCAAUAUUACGUAUA	-2 ± 0.23	-0.632 ± 0.15
UUAUAGCAAUAUUACGCUAG	-1.92 ± 0.2	-0.0618 ± 0.24
GCCCAGCAAUAUUACGGCGU	-1.12 ± 0.064	-0.731 ± 0.089
AUCUAGCAAUAUUACGUCUC	-2.8 ± 0.26	-0.391 ± 0.22
CUGCAGCAAUAUUACGACAA	–	-0.88 ± 0.19
UGUAAGCAAUAUUACGAACG	0.23 ± 0.13	0.542 ± 0.13
GCCCAGCAAUAUUACGGAAG	-2.76 ± 0.13	-1.4 ± 0.11
GUACAGCAAUAUUACGGGUU	-3.13 ± 0.09	-2.22 ± 0.099
AUUUAGCAAUAUUACGAAGG	-3.42 ± 0.38	-2.76 ± 0.41
UGUGAGCAAUAUUACGCACG	-1.47 ± 0.21	-1.8 ± 0.21
CACGAGCAAUAUUACGCACA	-2.74 ± 0.19	-1.17 ± 0.15
ACCGAGCAAUAUUACGCAUG	-2.69 ± 0.13	-2.47 ± 0.21

Sequence	self-splicing fitness (ln) (30 °C)	self-splicing fitness (ln) (37 °C)
AACCAGCAAUAUUACGAAUG	-2.22 ± 0.089	-1.89 ± 0.083
GAACAGCAAUAUUACGGGCC	-2.22 ± 0.14	-1.09 ± 0.17
ACAGAGCAAUAUUACGACUC	-2.94 ± 0.33	-2.47 ± 0.24
UUUUAGCAAUAUUACGGCUG	-0.732 ± 0.48	-0.495 ± 0.38
UAGUAGCAAUAUUACGAGGA	–	-1.81 ± 0.46
AUUAAGCAAUAUUACGAUUG	-2.98 ± 0.15	-1.86 ± 0.2
GCUUAGCAAUAUUACGAUCG	-1.19 ± 0.1	-0.254 ± 0.12
UCCAAGCAAUAUUACGGCUA	-1.98 ± 0.14	-0.476 ± 0.11
GCUAAGCAAUAUUACGAGAA	-0.77 ± 0.47	-1.64 ± 0.31
CUACAGCAAUAUUACGUUUA	-3.39 ± 0.22	-2.86 ± 0.19
GUAUAGCAAUAUUACGUCGC	-3.04 ± 0.25	-1.65 ± 0.2
CAGCAGCAAUAUUACGUCUA	-0.137 ± 0.045	0.377 ± 0.06
ACUCAGCAAUAUUACGUUCU	-0.967 ± 0.079	-0.242 ± 0.074
UCUAAGCAAUAUUACGCCGA	-1.12 ± 0.19	-0.156 ± 0.2
ACGUAGCAAUAUUACGGAUC	-1.97 ± 0.096	-0.313 ± 0.097
CUGGAGCAAUAUUACGGAUA	-3.57 ± 0.48	-1.35 ± 0.25
AGGCAGCAAUAUUACGUACG	-1.22 ± 0.074	0.303 ± 0.1
GCCUAGCAAUAUUACGGUGU	-0.374 ± 0.054	0.0553 ± 0.064
UCAAAGCAAUAUUACGGUGC	-3.92 ± 0.42	-1.94 ± 0.39
AGUAAGCAAUAUUACGGGUG	-3.13 ± 0.18	-0.695 ± 0.11
AAUUAGCAAUAUUACGCAAA	-1.96 ± 0.18	0.00784 ± 0.17
GUAUAGCAAUAUUACGGUCA	-1.5 ± 0.2	-0.663 ± 0.18
UUGCAGCAAUAUUACGUUCA	-0.896 ± 0.12	0.241 ± 0.12
CUUUAGCAAUAUUACGCCUC	–	-1.99 ± 0.43
